This test concerns the target Tom1 (S. cerevisiae HECT ubiquitin ligase), full-length, wild type (S. cerevisiae) (UniProt Q03280). In words: cryo-EM structure.

Our source for the stoichiometry N values is publication doi:10.1101/2024.11.25.625210.

UniProt Q03280, sequence (Q03280 whole entry): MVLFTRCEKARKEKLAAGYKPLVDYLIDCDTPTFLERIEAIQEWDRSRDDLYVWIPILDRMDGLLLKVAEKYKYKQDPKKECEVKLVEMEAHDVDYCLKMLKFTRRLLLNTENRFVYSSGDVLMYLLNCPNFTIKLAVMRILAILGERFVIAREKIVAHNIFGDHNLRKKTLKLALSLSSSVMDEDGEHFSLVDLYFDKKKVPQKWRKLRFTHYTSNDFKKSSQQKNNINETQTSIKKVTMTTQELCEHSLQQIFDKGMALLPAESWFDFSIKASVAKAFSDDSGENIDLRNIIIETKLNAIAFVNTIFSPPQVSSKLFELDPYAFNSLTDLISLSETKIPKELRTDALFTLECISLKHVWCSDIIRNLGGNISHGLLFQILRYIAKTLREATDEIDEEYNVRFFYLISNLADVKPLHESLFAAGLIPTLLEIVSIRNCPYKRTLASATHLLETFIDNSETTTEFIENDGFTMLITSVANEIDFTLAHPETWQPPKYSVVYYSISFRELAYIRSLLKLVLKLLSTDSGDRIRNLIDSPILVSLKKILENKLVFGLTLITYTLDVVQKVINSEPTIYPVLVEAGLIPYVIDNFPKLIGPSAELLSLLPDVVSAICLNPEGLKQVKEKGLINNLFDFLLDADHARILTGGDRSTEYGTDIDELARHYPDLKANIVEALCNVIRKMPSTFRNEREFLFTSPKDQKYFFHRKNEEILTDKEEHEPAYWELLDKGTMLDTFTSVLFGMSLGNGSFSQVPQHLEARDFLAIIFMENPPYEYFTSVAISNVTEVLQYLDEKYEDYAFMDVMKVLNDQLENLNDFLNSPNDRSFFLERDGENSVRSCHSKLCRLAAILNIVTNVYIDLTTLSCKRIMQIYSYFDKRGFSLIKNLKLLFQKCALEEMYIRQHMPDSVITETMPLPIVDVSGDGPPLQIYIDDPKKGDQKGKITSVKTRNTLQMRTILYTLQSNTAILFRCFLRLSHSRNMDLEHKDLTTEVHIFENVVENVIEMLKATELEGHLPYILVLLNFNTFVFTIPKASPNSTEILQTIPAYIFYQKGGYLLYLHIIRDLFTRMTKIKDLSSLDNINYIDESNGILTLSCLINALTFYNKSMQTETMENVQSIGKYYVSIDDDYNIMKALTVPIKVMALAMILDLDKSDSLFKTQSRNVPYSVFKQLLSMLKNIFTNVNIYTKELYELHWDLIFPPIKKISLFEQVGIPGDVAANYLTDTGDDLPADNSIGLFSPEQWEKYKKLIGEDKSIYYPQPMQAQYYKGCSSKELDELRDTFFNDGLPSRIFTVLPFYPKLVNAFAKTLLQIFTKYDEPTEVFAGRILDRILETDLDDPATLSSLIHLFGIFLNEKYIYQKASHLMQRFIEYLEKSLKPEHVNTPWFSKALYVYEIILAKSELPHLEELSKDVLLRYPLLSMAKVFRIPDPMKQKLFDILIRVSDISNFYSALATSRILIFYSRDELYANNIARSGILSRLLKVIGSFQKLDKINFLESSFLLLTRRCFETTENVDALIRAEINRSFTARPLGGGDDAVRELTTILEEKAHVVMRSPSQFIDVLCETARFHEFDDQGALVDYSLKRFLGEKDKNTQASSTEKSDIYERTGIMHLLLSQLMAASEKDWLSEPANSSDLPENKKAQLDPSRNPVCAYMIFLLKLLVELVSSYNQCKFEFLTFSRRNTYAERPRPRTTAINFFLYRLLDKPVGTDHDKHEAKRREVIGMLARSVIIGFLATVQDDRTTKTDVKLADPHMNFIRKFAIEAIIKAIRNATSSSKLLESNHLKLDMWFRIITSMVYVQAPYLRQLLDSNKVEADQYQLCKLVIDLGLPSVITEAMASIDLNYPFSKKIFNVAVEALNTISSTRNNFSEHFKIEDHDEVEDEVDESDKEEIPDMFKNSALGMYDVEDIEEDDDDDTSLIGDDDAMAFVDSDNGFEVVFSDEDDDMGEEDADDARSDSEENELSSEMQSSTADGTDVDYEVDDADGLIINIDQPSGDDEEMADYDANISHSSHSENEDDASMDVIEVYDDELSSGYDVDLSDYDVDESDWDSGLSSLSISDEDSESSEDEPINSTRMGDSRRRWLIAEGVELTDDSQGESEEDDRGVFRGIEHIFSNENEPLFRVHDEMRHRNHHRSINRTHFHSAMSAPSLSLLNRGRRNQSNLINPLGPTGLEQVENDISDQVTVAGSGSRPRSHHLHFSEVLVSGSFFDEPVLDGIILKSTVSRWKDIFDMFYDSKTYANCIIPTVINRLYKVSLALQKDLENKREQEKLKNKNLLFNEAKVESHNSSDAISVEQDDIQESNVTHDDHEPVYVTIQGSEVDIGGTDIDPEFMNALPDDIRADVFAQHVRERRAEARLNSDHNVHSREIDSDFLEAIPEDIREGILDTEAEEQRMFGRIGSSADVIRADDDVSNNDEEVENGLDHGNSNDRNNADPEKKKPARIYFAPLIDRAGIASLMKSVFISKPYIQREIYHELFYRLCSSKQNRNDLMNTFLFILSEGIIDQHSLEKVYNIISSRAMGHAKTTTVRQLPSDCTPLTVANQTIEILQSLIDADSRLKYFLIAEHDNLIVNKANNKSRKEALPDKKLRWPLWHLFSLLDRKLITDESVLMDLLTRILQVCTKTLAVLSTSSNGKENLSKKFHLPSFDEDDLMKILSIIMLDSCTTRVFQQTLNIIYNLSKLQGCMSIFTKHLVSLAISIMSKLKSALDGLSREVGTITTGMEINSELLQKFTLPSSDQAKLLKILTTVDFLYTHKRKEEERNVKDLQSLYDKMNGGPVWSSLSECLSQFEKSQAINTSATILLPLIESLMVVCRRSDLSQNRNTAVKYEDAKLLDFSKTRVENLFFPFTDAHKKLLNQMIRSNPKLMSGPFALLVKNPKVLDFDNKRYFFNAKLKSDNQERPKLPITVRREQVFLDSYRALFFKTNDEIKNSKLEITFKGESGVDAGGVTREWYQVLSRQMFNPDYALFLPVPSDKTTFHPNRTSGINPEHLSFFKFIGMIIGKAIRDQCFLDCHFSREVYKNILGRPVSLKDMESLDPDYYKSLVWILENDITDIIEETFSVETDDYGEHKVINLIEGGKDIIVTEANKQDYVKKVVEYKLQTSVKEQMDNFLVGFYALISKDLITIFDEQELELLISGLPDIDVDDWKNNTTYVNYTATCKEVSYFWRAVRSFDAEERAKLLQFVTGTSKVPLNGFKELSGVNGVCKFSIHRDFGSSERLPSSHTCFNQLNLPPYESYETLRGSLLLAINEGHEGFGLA

The substance “ubiquitin (from UniProt P0CG48 1-76) (natural protein)” showed a stoichiometry N of 4.
